Numbering of substitutions follows the chain as printed. Values joined by “and” are separate entries in the source; they are usually repeats but may differ in a detail not shown here. Equal values may be shown once. Read-outs that look alike come from different tables or passages of the source.
B1: Hu23F4-18 (antibody, V domains shown)
VH: EVQLVQSGAEVKKPGATVKISCKVSDYTLTSHYLHWVQQAPGKGLEWIGWIFPGDDKTKYNEKFKGRATLTSDTSTDTAYMELSSLRSEDTAVYYCARGTKYLNWNFDVWGQGTTVTVSS
VL: DIQLTQSPSFLSASVGDRVTITCKANQNVGTTLAWYQQKPGKAPKALIYSASYRYSGVPSRFSGSGSGTEFTLTISSLQPEDFATYYCHQYTTYPLTFGGGTKVEIK
B2: Hu23F4-35 (antibody, V domains shown)
VH: EVQLVQSGAEVKKPGASVKVSCKASGYTFTSHYLHWVRQAPGQGLEWIGWIFPGDDKTKYNEKFKGRATLTSDTSISTAYMELSRLRSDDTAVYYCARGTKYLNWNFDVWGQGTTVTVSS
VL: B1 VL with A43S, S60D, E70D, Y87F
B3: Hu23F4-15 (antibody, V domains shown)
VH: B1 VH with D26G, L29F
VL: B1 VL with S60D, E70D
B4: Hu23F4-19 (antibody, V domains shown)
VH: B1 VH
VL: B1 VL with S60D, E70D
B5: Hu50C5-13 (antibody, V domains shown)
VH: EVQLVQSGAEVKKPGSSVKVSCKASGYIFSPYSIHWVRQAPGQGLEWIGYINPSTGYIEYNQHFKDRVTITADKSTSTAYMELRSLRSEDTAVYYCARGGDYEGYFDYWGQGTTVTVSS
VL: DIQMTQSPSSLSASVGDRVTITCRLNENIYSFLAWYQQKPGKAPKLLVYNAETLAEDVPSRFSGSGSGTDFTLTISSLQPEDFATYYCQQHYGTPYTFGGGTKVEIK
B6: Hu23F4-4 (antibody, V domains shown)
VH: B1 VH with D26G, L29F, I48M, A68V, L70I, S72A
VL: B1 VL with A43S, S60D, E70D, Y87F
B7: Hu50C5-2 (antibody, V domains shown)
VH: B5 VH with Y27G, I28T, I48M
VL: B5 VL with D57G
B8: Hu23F4-7 (antibody, V domains shown)
VH: B1 VH with D26G, L29F, I48M, A68V, L70I
VL: B1 VL with S60D, E70D
B9: Hu23F4-27 (antibody, V domains shown)
VH: B2 VH with I48M, A68V, L70M
VL: B1 VL with A43S, S60D, E70D, Y87F
B10: 23F4 chimera (antibody, V domains shown)
VH: QVQLQQSGPELVKPGTSMKISCKTSDYTLTSHYLHWVKQRPGQGLEWIGWIFPGDDKTKYNEKFKGKATLTSDKTSNTAYMQLSSLTSEESAVYFCARGTKYLNWNFDVWGTGTTVTVSS
VL: DIVLTQPQKFLSTSVGDRVSVTCKANQNVGTTLAWYQQKPGQSPKALIYSASYRYSGVPDRFTGSGSGTDFTLTISNVQSEDLAEYFCHQYTTYPLTFGGGTKLEIK
B11: Hu23F4-3 (antibody, V domains shown)
VH: B1 VH with D26G, L29F, I48M, A68V, L70I, S72A
VL: B1 VL with S60D, E70D
B12: Hu23F4-34 (antibody, V domains shown)
VH: B2 VH
VL: B1 VL with S60D, E70D
B13: Hu23F4-1 (antibody, V domains shown)
VH: B1 VH with D26G, L29F, I48M, A68V, L70I, S72A
VL: B1 VL with A46L
B14: Hu23F4-17 (antibody, V domains shown)
VH: B1 VH
VL: B1 VL with A46L
B15: Hu23F4-25 (antibody, V domains shown)
VH: B2 VH with I48M, A68V, L70M
VL: B1 VL
B16: Hu23F4-22 (antibody, V domains shown)
VH: B2 VH with I48M, A68V, L70M, S72R
VL: B1 VL with S60D, E70D
B17: Hu23F4-37 (antibody, V domains shown)
VH: B2 VH with G26D, F29L
VL: B1 VL
B18: Hu23F4-29 (antibody, V domains shown)
VH: B2 VH with I48M, A68V
VL: B1 VL
B19: Hu23F4-14 (antibody, V domains shown)
VH: B1 VH with D26G, L29F
VL: B1 VL
B20: Hu23F4-10 (antibody, V domains shown)
VH: B1 VH with D26G, L29F, I48M
VL: B1 VL
B21: Hu23F4-28 (antibody, V domains shown)
VH: B2 VH with I48M, A68V
VL: B1 VL with A46L
B22: Hu23F4-9 (antibody, V domains shown)
VH: B1 VH with D26G, L29F, I48M
VL: B1 VL with A46L
B23: Hu23F4-26 (antibody, V domains shown)
VH: B2 VH with I48M, A68V, L70M
VL: B1 VL with S60D, E70D
B24: Hu23F4-38 (antibody, V domains shown)
VH: B2 VH with G26D, F29L
VL: B1 VL with S60D, E70D
B25: Hu23F4-36 (antibody, V domains shown)
VH: B2 VH with G26D, F29L
VL: B1 VL with A46L
B26: Hu23F4-16 (antibody, V domains shown)
VH: B1 VH with D26G, L29F
VL: B1 VL with A43S, S60D, E70D, Y87F
B27: Hu23F4-32 (antibody, V domains shown)
VH: B2 VH
VL: B1 VL with A46L
B28: Hu23F4-5 (antibody, V domains shown)
VH: B1 VH with D26G, L29F, I48M, A68V, L70I
VL: B1 VL with A46L
B29: Hu23F4-30 (antibody, V domains shown)
VH: B2 VH with I48M, A68V
VL: B1 VL with S60D, E70D
B30: Hu23F4-12 (antibody, V domains shown)
VH: B1 VH with D26G, L29F, I48M
VL: B1 VL with A43S, S60D, E70D, Y87F
B31: Hu23F4-33 (antibody, V domains shown)
VH: B2 VH
VL: B1 VL
B32: Hu23F4-24 (antibody, V domains shown)
VH: B2 VH with I48M, A68V, L70M
VL: B1 VL with A46L
B33: Hu23F4-21 (antibody, V domains shown)
VH: B2 VH with I48M, A68V, L70M, S72R
VL: B1 VL
B34: Hu23F4-20 (antibody, V domains shown)
VH: B2 VH with I48M, A68V, L70M, S72R
VL: B1 VL with A46L
B35: Hu23F4-11 (antibody, V domains shown)
VH: B1 VH with D26G, L29F, I48M
VL: B1 VL with S60D, E70D
B36: Hu23F4-23 (antibody, V domains shown)
VH: B2 VH with I48M, A68V, L70M, S72R
VL: B1 VL with A43S, S60D, E70D, Y87F
B37: Hu23F4-31 (antibody, V domains shown)
VH: B2 VH with I48M, A68V
VL: B1 VL with A43S, S60D, E70D, Y87F
B38: Hu23F4-8 (antibody, V domains shown)
VH: B1 VH with D26G, L29F, I48M, A68V, L70I
VL: B1 VL with A43S, S60D, E70D, Y87F
B39: Hu23F4-2 (antibody, V domains shown)
VH: B1 VH with D26G, L29F, I48M, A68V, L70I, S72A
VL: B1 VL
B40: Hu23F4-13 (antibody, V domains shown)
VH: B1 VH with D26G, L29F
VL: B1 VL with A46L
B41: Hu23F4-6 (antibody, V domains shown)
VH: B1 VH with D26G, L29F, I48M, A68V, L70I
VL: B1 VL

How the values were obtained:
Assay in all cases: ELISA
[1] = target: T1, recombinant human GM-CSF protein (human, UniProt P04141 18-144)
[2] = target: T1, recombinant human GM-CSF protein; remark: listed apart in the source
[3] = target: T1, recombinant human GM-CSF protein; remark: listed apart in the source

T1 sequence (P04141 18-144): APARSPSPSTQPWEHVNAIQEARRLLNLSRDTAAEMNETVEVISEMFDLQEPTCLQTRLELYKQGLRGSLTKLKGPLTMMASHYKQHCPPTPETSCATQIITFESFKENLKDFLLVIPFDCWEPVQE

Row | Binder | EC50 [1] | EC50 [2] | further results
1 | B1 | 0.0585 nM |  | 
2 | B2 |  | 0.0624 nM | 
3 | B3 | 0.171 nM |  | 
4 | B4 | 0.0787 nM |  | 
5 | B5 |  |  | EC50 [3]: 3.52 nM
6 | B6 | 0.0623 nM |  | 
7 | B7 |  |  | EC50 [3]: 2.19 nM
8 | B8 | 0.164 nM |  | 
9 | B9 |  | 0.0384 nM | 
10 | B10 | 0.081 nM and 0.0923 nM | 0.092 nM and 0.0881 nM | 
11 | B11 | 0.0887 nM |  | 
12 | B12 |  | 0.0977 nM | 
13 | B13 | 0.11 nM |  | 
14 | B14 | 0.102 nM |  | 
15 | B15 |  | 0.0268 nM | 
16 | B16 | 0.059 nM |  | 
17 | B17 |  | 0.127 nM | 
18 | B18 |  | 0.0736 nM | 
19 | B19 | 0.0508 nM |  | 
20 | B20 | 0.116 nM |  | 
21 | B21 |  | 0.101 nM | 

Row | Binder | EC50 [1] | EC50 [2] | further results
22 | B22 | 0.0516 nM |  | 
23 | B23 |  | 0.0348 nM | 
24 | B24 |  | 0.136 nM | 
25 | B25 |  | 0.0384 nM | 
26 | B26 | 0.0858 nM |  | 
27 | B27 |  | 0.0873 nM | 
28 | B28 | 0.0585 nM |  | 
29 | B29 |  | 0.0411 nM | 
30 | B30 | 0.226 nM |  | 
31 | B31 |  | 0.0954 nM | 
32 | B32 |  | 0.0907 nM | 
33 | B33 | 0.151 nM |  | 
34 | B34 | 0.0993 nM |  | 
35 | B35 | 0.0871 nM |  | 
36 | B36 |  | 0.047 nM | 
37 | B37 |  | 0.0424 nM | 
38 | B38 | 0.0484 nM |  | 
39 | B39 | 0.158 nM |  | 
40 | B40 | 0.0852 nM |  | 
41 | B41 | 0.0196 nM |  | 
